# Measured values reported in the supplement of paper PMC9112550, “Optimization of the antimicrobial peptide Bac7 by deep mutational scanning” (BMC Biology, 2022).
# Tested on: Escherichia coli TOP10
# Test: shrunken log2 fold change of peptide-encoding DNA abundance (4.5 h post-induction vs induction); higher = less antimicrobial activity (less host growth inhibition)
# Conditions: time post-induction: 4.5 h; library: site-saturation at positions 5, 18, 19, 20
# 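Further: peptides expressed intracellularly from a pBAD plasmid library in pooled LB shake-flask culture, induced with 0.3% L-arabinose, DNA abundance read by NGS, three biological replicates, DESeq2 with apeglm shrinkage.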
row,Sequence,shrunken log2 fold change
1,RRIRHRPPRLPRPRPRPVYLPRP,-0.406
2,RRIRDRPPRLPRPRPRPRDWPRP,0.619
3,RRIRTRPPRLPRPRPRPNVAPRP,0.174
4,RRIRLRPPRLPRPRPRPTVYPRP,-0.146
5,RRIRFRPPRLPRPRPRPDMAPRP,-0.108
6,RRIRQRPPRLPRPRPRPLPRPRP,0.724
7,RRIRVRPPRLPRPRPRPSGLPRP,0.0687
8,RRIRIRPPRLPRPRPRPLGEPRP,-0.277
9,RRIRIRPPRLPRPRPRPMGLPRP,-0.0686
10,RRIRYRPPRLPRPRPRPTTAPRP,-0.415
11,RRIRERPPRLPRPRPRPYHWPRP,-0.0488
12,RRIRKRPPRLPRPRPRPKHKPRP,0.362
13,RRIRMRPPRLPRPRPRPRWKPRP,0.214
14,RRIRYRPPRLPRPRPRPPYWPRP,-0.22
15,RRIRRRPPRLPRPRPRPGYVPRP,0.183
16,RRIRQRPPRLPRPRPRPYKHPRP,-0.161
17,RRIRARPPRLPRPRPRPINYPRP,-0.239
18,RRIRNRPPRLPRPRPRPVQDPRP,-0.302
19,RRIRNRPPRLPRPRPRPYVMPRP,-1.01
20,RRIRMRPPRLPRPRPRPSESPRP,-0.01
21,RRIRRRPPRLPRPRPRPWMDPRP,-0.196
22,RRIRSRPPRLPRPRPRPDHEPRP,-0.0462
23,RRIRPRPPRLPRPRPRPFLMPRP,-0.349
24,RRIRERPPRLPRPRPRPAGDPRP,3.19
25,RRIRYRPPRLPRPRPRPTMAPRP,0.12

row,Sequence,shrunken log2 fold change
1,RRIRLRPPRLPRPRPRPPCEPRP,0.123
2,RRIRIRPPRLPRPRPRPQFGPRP,1.74
3,RRIRVRPPRLPRPRPRPKGLPRP,-0.239
4,RRIRVRPPRLPRPRPRPHMQPRP,0.0906
5,RRIRYRPPRLPRPRPRPYWSPRP,-0.0274
6,RRIRKRPPRLPRPRPRPPHAPRP,0.728
7,RRIRKRPPRLPRPRPRPQWIPRP,0.00082
8,RRIRERPPRLPRPRPRPWWFPRP,0.137
9,RRIRLRPPRLPRPRPRPMPWPRP,0.276
10,RRIRKRPPRLPRPRPRPVEGPRP,-0.006
11,RRIRSRPPRLPRPRPRPDCCPRP,0.227
12,RRIRERPPRLPRPRPRPYPYPRP,-0.372
13,RRIRVRPPRLPRPRPRPGMFPRP,-0.132
14,RRIRGRPPRLPRPRPRPHQYPRP,-0.226
15,RRIRMRPPRLPRPRPRPNGMPRP,0.185
16,RRIRKRPPRLPRPRPRPGCTPRP,0.517
17,RRIRYRPPRLPRPRPRPSPGPRP,-0.726
18,RRIRHRPPRLPRPRPRPWFRPRP,-0.00674
19,RRIRKRPPRLPRPRPRPAAMPRP,0.707
20,RRIRTRPPRLPRPRPRPTFAPRP,0.459
21,RRIRMRPPRLPRPRPRPPPIPRP,1.47
22,RRIRQRPPRLPRPRPRPLGEPRP,0.0549
23,RRIRIRPPRLPRPRPRPSMSPRP,-0.6
24,RRIRVRPPRLPRPRPRPCWEPRP,-0.0578
25,RRIRTRPPRLPRPRPRPRRFPRP,-0.115

row,Sequence,shrunken log2 fold change
1,RRIRHRPPRLPRPRPRPGIHPRP,-0.2
2,RRIRIRPPRLPRPRPRPHWQPRP,1.4
3,RRIRKRPPRLPRPRPRPILCPRP,0.00753
4,RRIRPRPPRLPRPRPRPERMPRP,0.122
5,RRIRYRPPRLPRPRPRPQWWPRP,0.0898
6,RRIRFRPPRLPRPRPRPATLPRP,-0.159
7,RRIRARPPRLPRPRPRPSYQPRP,-0.234
8,RRIRPRPPRLPRPRPRPVQMPRP,0.0287
9,RRIRFRPPRLPRPRPRPHWLPRP,-0.066
10,RRIRPRPPRLPRPRPRPWVAPRP,0.014
11,RRIRYRPPRLPRPRPRPPKIPRP,0.152
12,RRIRVRPPRLPRPRPRPEYDPRP,-0.0844
13,RRIRERPPRLPRPRPRPQQIPRP,-0.384
14,RRIRIRPPRLPRPRPRPSLDPRP,-0.564
15,RRIRVRPPRLPRPRPRPLFIPRP,0.101
16,RRIRNRPPRLPRPRPRPQKCPRP,0.0748
17,RRIRIRPPRLPRPRPRPCIFPRP,-0.402
18,RRIRFRPPRLPRPRPRPAFDPRP,0.128
19,RRIRCRPPRLPRPRPRPQTIPRP,-0.516
20,RRIRLRPPRLPRPRPRPCQVPRP,-0.128
21,RRIRERPPRLPRPRPRPDMKPRP,0.0475
22,RRIRDRPPRLPRPRPRPRPPPRP,0.935
23,RRIRRRPPRLPRPRPRPMAPPRP,0.665
24,RRIRTRPPRLPRPRPRPMWHPRP,-0.391
25,RRIRVRPPRLPRPRPRPLMQPRP,-0.0132

row,Sequence,shrunken log2 fold change
1,RRIRKRPPRLPRPRPRPTKFPRP,0.663
2,RRIRLRPPRLPRPRPRPWTQPRP,0.13
3,RRIRKRPPRLPRPRPRPSQRPRP,0.231
4,RRIRARPPRLPRPRPRPIECPRP,0.157
5,RRIRNRPPRLPRPRPRPNCQPRP,-0.182
6,RRIRYRPPRLPRPRPRPRCYPRP,0.0145
7,RRIRFRPPRLPRPRPRPGTKPRP,0.478
8,RRIRLRPPRLPRPRPRPLGFPRP,0.38
9,RRIRWRPPRLPRPRPRPQEAPRP,-0.00482
10,RRIRHRPPRLPRPRPRPSKMPRP,-0.858
11,RRIRERPPRLPRPRPRPKVNPRP,-0.389
12,RRIRTRPPRLPRPRPRPPPHPRP,0.907
13,RRIRKRPPRLPRPRPRPLSPPRP,0.615
14,RRIRNRPPRLPRPRPRPHDYPRP,0.0503
15,RRIRLRPPRLPRPRPRPTREPRP,0.794
16,RRIRERPPRLPRPRPRPPVLPRP,0.127
17,RRIRQRPPRLPRPRPRPCCKPRP,-0.00783
18,RRIRLRPPRLPRPRPRPKGKPRP,-0.106
19,RRIRKRPPRLPRPRPRPATSPRP,0.288
20,RRIRHRPPRLPRPRPRPRFVPRP,-0.0283
21,RRIRHRPPRLPRPRPRPNQWPRP,-0.227
22,RRIRMRPPRLPRPRPRPSWSPRP,0.154
23,RRIRDRPPRLPRPRPRPFEDPRP,0.265
24,RRIRTRPPRLPRPRPRPCQMPRP,-0.267
25,RRIRCRPPRLPRPRPRPSCLPRP,-0.499

row,Sequence,shrunken log2 fold change
1,RRIRRRPPRLPRPRPRPIEFPRP,-0.0597
2,RRIRMRPPRLPRPRPRPRFWPRP,0.522
3,RRIRRRPPRLPRPRPRPINIPRP,-0.256
4,RRIRQRPPRLPRPRPRPDKQPRP,0.0312
5,RRIRYRPPRLPRPRPRPDVFPRP,-0.0152
6,RRIRFRPPRLPRPRPRPHYWPRP,-0.505
7,RRIRPRPPRLPRPRPRPSTKPRP,-0.0696
8,RRIRVRPPRLPRPRPRPYDQPRP,-0.192
9,RRIRPRPPRLPRPRPRPYQKPRP,0.0104
10,RRIRSRPPRLPRPRPRPAFYPRP,-0.166
11,RRIRSRPPRLPRPRPRPQKPPRP,-0.0986
12,RRIRMRPPRLPRPRPRPCIFPRP,0.0107
13,RRIRPRPPRLPRPRPRPTYSPRP,-0.104
14,RRIRNRPPRLPRPRPRPTPPPRP,0.49
15,RRIRFRPPRLPRPRPRPIVMPRP,-0.731
16,RRIRTRPPRLPRPRPRPGYQPRP,-0.0553
17,RRIRHRPPRLPRPRPRPWLMPRP,-0.12
18,RRIRPRPPRLPRPRPRPQKWPRP,0.17
19,RRIRQRPPRLPRPRPRPLAKPRP,-0.041
20,RRIRDRPPRLPRPRPRPFRAPRP,-0.0871
21,RRIRTRPPRLPRPRPRPDRNPRP,-0.09
22,RRIRNRPPRLPRPRPRPLMWPRP,-0.175
23,RRIRMRPPRLPRPRPRPKYWPRP,0.164
24,RRIRNRPPRLPRPRPRPTPMPRP,0.0289
25,RRIRNRPPRLPRPRPRPSEIPRP,-0.0685

row,Sequence,shrunken log2 fold change
1,RRIRVRPPRLPRPRPRPNFKPRP,-0.0173
2,RRIRWRPPRLPRPRPRPFRWPRP,0.0815
3,RRIRDRPPRLPRPRPRPTGIPRP,0.26
4,RRIRKRPPRLPRPRPRPLYIPRP,-0.329
5,RRIRIRPPRLPRPRPRPFMMPRP,0.0298
6,RRIRNRPPRLPRPRPRPRLDPRP,0.0403
7,RRIRHRPPRLPRPRPRPGQKPRP,0.00748
8,RRIRVRPPRLPRPRPRPCPWPRP,0.0617
9,RRIRLRPPRLPRPRPRPMQFPRP,0.179
10,RRIRFRPPRLPRPRPRPYFEPRP,-0.617
11,RRIRIRPPRLPRPRPRPYTMPRP,-0.758
12,RRIRIRPPRLPRPRPRPTHHPRP,0.155
13,RRIRSRPPRLPRPRPRPTMVPRP,0.0872
14,RRIRPRPPRLPRPRPRPQMGPRP,-0.0457
15,RRIRCRPPRLPRPRPRPYSNPRP,-0.655
16,RRIRKRPPRLPRPRPRPLGDPRP,0.227
17,RRIRNRPPRLPRPRPRPIKWPRP,-0.498
18,RRIRARPPRLPRPRPRPWGCPRP,0.211
19,RRIRGRPPRLPRPRPRPFENPRP,0.0511
20,RRIRQRPPRLPRPRPRPGWTPRP,0.286
21,RRIRRRPPRLPRPRPRPAKHPRP,0.219
22,RRIRGRPPRLPRPRPRPMYIPRP,-0.396
23,RRIRMRPPRLPRPRPRPVCWPRP,0.833
24,RRIRSRPPRLPRPRPRPIAHPRP,-0.0401
25,RRIRPRPPRLPRPRPRPSPVPRP,0.0207
